According to doi:10.1101/2021.07.21.452842:

Target: GST-BRCA1 (tandem BRCT) M1775R (UniProt P38398)
Assay: pull-down

B1: His-GIV-CT (aa 1660-1870) (domain or fragment)
chain: SETLESRHHKIKTGSPGSEVVTLQQFLEESNKLTSVQIKSSSQENLLDEVMKSLSVSSDFLGKDKPVSCGLARSVSGKTPGDFYDRRTTKPEFLRPGPRKTEDTYFISSAGKPTPGTQGKIKLVKESSLSRQSKDSNPYATLPRASSVISTAEGTTRRTSIHDFLTKDSRLPISVDSPPAAADSNTTAASNVDKVQESRNSKSRSREQQSS
Question: For B1, which fold change of binding against BRCA1 (tandem BRCT) WT is on record?
Answer: 3 to 5 fold
